The assay deals with envelope glycoproteins of HIV-1HxB2 strain on Env-pseudotyped luciferase reporter virus (HIV-1 HxB2) (UniProt P04578). As to the kind of experiment: cell-based or functional assay.

With “2D-CD4 secreted by L. jensenii harboring pOSEL651 (P23 promoter-CbsAss-2D-CD4) (from UniProt P01730 26-208)”, the inhibition of HIV-1 entry (luciferase activity at 48 hours), co-incubation of L. jensenii Xna-651 bacteria at 2.5x10^8/ml with virus and HeLa CD4-CXCR4 cells was 79%.

For the substance “2D-CD4 secreted by L. jensenii harboring pOSEL651 (P23 promoter-CbsAss-2D-CD4) (from UniProt P01730 26-208) (receptor)”, the inhibition of HIV-1 entry (luciferase activity at 48 hours), co-incubation of L. jensenii Xna-651 bacteria at 5x10^8/ml with virus and HeLa CD4-CXCR4 cells turned out to be 90%.

The values above are taken from patent US20090148408A1.
